The values that follow come from patent publication US20200385425A1.

This assay concerns the target PDZ1/2 domain (Homo sapiens (Human)), P78352. The assay is described as follows: SPR, Biacore 3000, PDZ1/2 amine-coupled on CM5 chip, peptide as analyte, 1:1 binding model. (Surface plasmon resonance follows binding to a sensor surface in real time, without labels.)

Sequence of PDZ1/2 domain (Homo sapiens (Human)), P78352 (P78352 65-246 limits assumed): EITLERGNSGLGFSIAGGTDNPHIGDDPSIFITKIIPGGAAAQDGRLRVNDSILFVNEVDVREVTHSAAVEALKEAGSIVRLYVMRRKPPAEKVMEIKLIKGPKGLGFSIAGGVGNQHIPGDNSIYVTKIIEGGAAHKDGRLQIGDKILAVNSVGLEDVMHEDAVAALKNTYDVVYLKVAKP

B1: chimeric peptide YE-NA-1 (peptide)
peptide: YGRKKRRQRRRYEKLSSIESDV
modifications: not checked
The term Kd denotes the constant that tells how readily two partners part at equilibrium. Turning to B1, the Kd was found to be 54.4 nM.
